Laboratory results: patent US20230279079A1 (CHANG GUNG MEMORIAL HOSPITAL LINKOU, published 2023)
Changes are numbered by the printed parent chain.

B1: EY 5A (antibody, V domains shown)
VH: EVQLVESGPGLVKPSGTLFLTCTVSGGSISNYYWSWIRQPPGKALEWIGFIYSNGNTDYNPSLQSRVTISGDTSKNQFSLNLRSVTAADTAVYYCARGPGPATGGSLDYWGQGTMVTVSS
VL: not shown
B2: EZ 4A (antibody, V domains shown)
VH: EVQLVQSGAEVKKPGESLKISCKGSGYSFTSYWIGWVRQMPGKGLEWMGIIYPGDSDTRYSPSFQGQVTISADKSISTAYLQWSSLKASDTAMYYCARSPIAADLFDYWGQGTLVTVSS
VL: not shown
B3: EZ 4C kappa (antibody, V domains shown)
VH: EVQLVESGPGLVKPSETLSLTCTVSGGSVSSGNNYWSWIRQPPGKALEWIGYIYYSGSTKYNPSLKSRVTMSVGTSKNQFSLKVNSVTAADTAMYYCARAPSAPFGGLFDWILPKGINNWGQGTLVTVSS
VL: EIVLTQSPSTLSASVGDRVTITCRTSQSIRSWLAWYQQKPGKAPKLLIFEASTLESGVPERFSGSGSGAEFTLTISSLQPDDFATYYCQQYNGYSYSFGQGTKVEIR
notes: also called EZ 4C-1
B4: EY 8A (antibody, V domains shown)
VH: EVQLVESGPGLVKPSQTLSLTCTVSGGSISSGSYYWSWIRQPAGKGLEWIGRIYTSGSTNYNPSLKSRVTISVDTSKNQFSLKLSSVTAADTAVYYCAKGHVISGYDDYYYYYGMDVWGQGTTVTVSS
VL: not shown
B5: EZ 7B (antibody, V domains shown)
VH: EVQLVESSPGLVKPSETLSLTCTVSGGSISSYYWSWIRQPPGKGLEWIGYIYYSGSTNYNPSLKSRVTISVDTSKNQFSLKLSSVTAADTAVYYCARRVFGPVLPSKLGGSYWGGGAFDIWGQGTMVTVSS
VL: not shown
B6: FB 9D (antibody, V domains shown)
VH: QVQLVESGAEVKKPGESLKISCQGSGYRFNSYWIAWVRQMPGKGLEWMGSIFPTDSDVRYNPSFQGQVTISADKSISFAYLQWSSLKASDTAIYYCARHWASMVRGVIRASHYYGMDVWGQGTTVTVSS
VL: QPVLTQPPSASGSPGQSVTISCSGASSDIGKYNYVSWYQQLPGKAPKLLIYEVTKRPSGVPDRFSGSKSGNTASLTVSGLQADDEADYYCSSYAFGGSDTRVFGGGTKLTVL
B7: FN 2C (antibody, V domains shown)
VH: EVQLLESGGGVVQPGRSLRLSCAASGFNFNNYGMHWVRQAPGKGLEWVATISYEGSKKFYVDSVKGRFTISKDNSKNTLYLQMNSLRVDDTAFYYCAKRREIFWLGEPPLSDAFDFWGQGTMVTVSS
VL: QSVLTQPPSVSGAPGQRVTISCTGSGSNIGAGYDVHWYQFLPGTAPQLLIYGNNNRPSGVPDRFSGSKSGTSASLAITGLQAEDEADYYCQSYDSSLSGSVFGGGTKLTVL
B8: FJ 1C (antibody, V domains shown)
VH: QVQLQESGPGLVKPSETLSLTCTVSGYSISSGYYWGWIRQPPGKGLEWIGSIYHSGSTYYNPSLKSRVTISVDTSKNQFSLKLSSVTAADTAVYYCARDKALLWFGELFTNLFDYWGQGTLVTVSS
VL: QSALTQPASVSGSPGQSITISCTGTSSDVGGYNYVSWYQQHPGKAPKLMIYEVSNRPSGVSNRFSGSKSGNTASLTISGLQAEDEANYYCSSYTSSSTLVFGGGTKLTVL
B9: FG 12C (antibody, V domains shown)
VH: EVQLVESGGGLVQPGRSLRLSCAASGFTFDDYAMHWVRQAPGKGLEWVSGISWNSGSIGYADSVKGRFTISRDNAKNSLYLQMNSLRAEDTALYYCAKDMRVHDYGDYYFDYWGQGTLVTVSS
VL: SYELTQPPSVSVAPGKTARITCGGNNIGSKSVHWYQQKPGQAPVLVIYYDSDRPSGIPERFSGSNSGNTATLTISRVEAGDEADYYCQVWDSSSDHPVFGGGTKLTVL
B10: FN 8C (antibody, V domains shown)
VH: QVQLVESGGGVVQPGRSLRLSCAASGFTFSSYGMHWVRQAPGKGLEWVAVISYDGSNKYYADTVKGRFTISRDNSKNTLYLQMNSLRAEDTAVYYCARERTYYDILTGYRHYYGMDVWGQGTTVTVSS
VL: B9 VL with K16Q, I47V, Y49D, P97W
B11: FI 1C (antibody, V domains shown)
VH: EVQLVESGGGLVKPGGSLRLSCAASGFTFSDYYMSWIRQAPGKGLEWVSYISSSGSTIYYADSVKGRFTISRDNAKNSLYLQMNSLRAEDTAVYYCARRSNRFLIAFDIWGQGTMVTVSS
VL: QSALTQPASVSGSPGQTITISCTGTSSDVGGYNYVSWYQQHPGKAPKLMIYEVSNRPSGVSNRFSGSKSGNTASLTISGLQAEDEADYYCSSYTSSSTLVVFGGGTKLTVP
B12: FD 11D (antibody, V domains shown)
VH: EVQLVESGGGVVQPGRSLRLSCAASGFTFSSYGMHWVRQAPGKGLEWVAVISYDGSNKYYADSVKGRFTISRDNSKNTLYLQMNSLRAEDTAVYYCAKEGAGSGWYRHHKPGYYFDYWGQGTLVTVSS
VL: not shown
B13: FD 11C (antibody, V domains shown)
VH: EVQLLESGPGLVKPSETLSLTCTVSGGSISSSSYYWGWIRQPPGKGLEWIGSIYYSGSTYYNPSLKSRVTISVDTSKNQFSLKLSSVTAADTAVYYCAREYYYGSETKKYYYYYGMDVWGQGTTVTVSS
VL: not shown
B14: EY 6A-1 (antibody, V domains shown)
VH: EVQLVESGGGVVQPGRSLRLSCAASAFTFSSYDMHWVRQAPGKGLEWVAVISYDGSNKYYADSVKGRFTISRDNSKNTLYLQMNSLRAEDTAVYYCAKDGGKLWVYYFDYWGQGTLVTVSS
VL: not shown
B15: FD 7D (antibody, V domains shown)
VH: EVQLVESGAEVKKPGESLRISCKGSGYSFTSYWISWVRQMPGKGLEWMGRIDPSDSYTNYSPSFQGHVTISADKSISTAYLQWSSLKASDTAMYYCARHSDCSSTSCYFVDAFDIWGQGTMVTVSS
VL: not shown
B16: FD 1E (antibody, V domains shown)
VH: EVQLLESGGGLVKPGGSLRLSCAASGFTFSSYSMNWVRQAPGKGLEWVSSISSSSSYIYYADSVKGRFTISRDNAKNSLYLQMNSLRAEDTAVYYCASLAAAGPETYYYYGMDVWGQGTMVTVSS
VL: not shown
B17: FD 11E (antibody, V domains shown)
VH: B16 VH with L5V
VL: not shown
B18: FD 7C (antibody, V domains shown)
VH: QLQLQESGPGLVKPSETLSLTCTVSGGSISSYYWSWIRQPPGKGLEWIGYIYYSGSTNYNPSLKSRVTISVDTSKNQFSLKLSSVTAADTAVYYCARDYRFGELFGRFAWFDPWGQGTLVTVSS
VL: not shown
B19: FD 8B (antibody, V domains shown)
VH: EVQLLESGAEVKKPGASVKVSCKVSGYTLTELSMHWVRQAPGKGLEWMGGFDPEDGETIYAQKFQGRVTMTEDTSTDTAYMELSSLRSEDTAVYYCATAAAINCSSTSCYYYYYYYGMDVWGQGTTVTVSS
VL: not shown

These binders were tested against T1, SARS-CoV-2 nucleocapsid protein (SARS-CoV-2, UniProt P0DTC9 1-419) (assay: ELISA on recombinant protein).
T1 construct: also called N protein

| Binder | binding result |
| --- | --- |
| B1 | binds |
| B2 | binds |
| B3 | binds |
| B4 | binds |
| B5 | binds |

The binders below were run against T2, SARS-CoV-2 spike S1 subunit (SARS-CoV-2, UniProt P0DTC2 16-685) (assay: ELISA).
T2 construct: domain: S1 subunit

| Binder | binding result |
| --- | --- |
| B6 | no binding |
| B7 | no binding |

Each binder was assayed against T3, MERS spike extracellular domain (Middle East respiratory syndrome …, UniProt K9N5Q8 18-1296) (assay: ELISA).
T3 construct: extracellular domain

| Binder | binding result |
| --- | --- |
| B8 | no binding |
| B9 | no binding |
| B10 | no binding |
| B6 | binds |
| B11 | no binding |
| B12 | binds |
| B13 | no binding |
| B14 | no binding |
| B15 | no binding |
| B16 | no binding |
| B17 | no binding |
| B18 | no binding |
| B19 | no binding |
| B7 | no binding |

What follows are binders tested against T4, SARS-CoV-2 spike receptor binding domain (RBD) (SARS-CoV-2, UniProt P0DTC2 319-541) (assay: ELISA).
T4 construct: also called SARS-CoV-2 RBD

| Binder | binding result |
| --- | --- |
| B8 | no binding |
| B9 | no binding |
| B10 | no binding |
| B6 | no binding |
| B12 | no binding |
| B13 | no binding |
| B15 | no binding |
| B16 | no binding |
| B17 | no binding |
| B18 | no binding |
| B19 | no binding |
| B7 | no binding |

The binders below were run against T5, SARS-CoV-2 spike S2 subunit (SARS-CoV-2, UniProt P0DTC2 686-1213) (assay: ELISA).
T5 construct: domain: S2 subunit

| Binder | binding result |
| --- | --- |
| B8 | no binding |
| B9 | no binding |
| B10 | no binding |
| B11 | no binding |
| B12 | no binding |
| B13 | no binding |
| B14 | no binding |
| B15 | no binding |
| B16 | no binding |
| B17 | no binding |
| B18 | no binding |
| B19 | no binding |

These binders were tested against T6, Human coronavirus OC43 spike extracellular domain (human coronavirus OC43, UniProt P36334 14-1297) (assay: ELISA).
T6 construct: extracellular domain

| Binder | binding result |
| --- | --- |
| B8 | no binding |
| B9 | no binding |
| B10 | no binding |
| B11 | no binding |
| B12 | binds |
| B13 | no binding |
| B14 | no binding |
| B15 | no binding |
| B16 | no binding |
| B17 | no binding |
| B18 | no binding |
| B19 | no binding |

Each binder was assayed against T7, SARS spike S1 subunit (severe acute respiratory syndrome …, UniProt P59594 14-667) (assay: ELISA).
T7 construct: domain: S1 subunit

| Binder | binding result |
| --- | --- |
| B8 | binds |
| B9 | no binding |
| B10 | no binding |
| B6 | no binding |
| B11 | no binding |
| B12 | binds |
| B13 | no binding |
| B14 | binds |
| B15 | no binding |
| B16 | no binding |
| B17 | no binding |
| B18 | no binding |
| B19 | no binding |
| B7 | no binding |

What follows are binders tested against spike glycoprotein of wild type SARS-CoV-2 virus (SARS-CoV-2, UniProt P0DTC2 14-1273) (assay: cell-based or functional assay).

| Binder | Neutralization by PRNT EC50 | Neutralization by FMNT EC50 |
| --- | --- | --- |
| B8 | 55.5 nM |  |
| B11 | 16.7 nM | 2.24 nM |
| B14 | 133 nM | 22.5 nM |
| B16 | 110 nM |  |
| B17 | 70 nM |  |
| B18 |  | 35.6 nM |
